In publication PMC3466378 (Journal of immunology (Baltimore, Md. : 1950), 2012) one finds IC50, t1/2in and t1/2DM data, which are given here for 17 compounds.

One experiment has as its target HLA-DR1 (Homo sapiens, UniProt P01903+P01911, A100R/D57E/F55L/F60I/F76Y/I96L/L162R/M171V/P40L/Q125E/R42F/V115G/Y59C). In words: biochemical. The experiment is classed as binding.
Experiment [1] concerns the target Soluble recombinant HLA-DR1 (HLA DRB1*0101) (human). In words: ELISA. On the technique in general: In an ELISA, binding on a coated surface is turned into a signal by an enzyme label.
The target is the same in experiment [2]. In words: fluorescence polarisation. (Polarisation of emitted light reports the rotation of a fluorescent probe.)

Ends that are not written are not given here.

The term IC50 denotes the concentration needed to halve the response being measured. Consider `CC[C@H](C)[C@H](NC(=O)[C@H](CCCNC(=N)N)NC(=O)[C@H](CC(=O)O)NC(=O)[C@@H](NC(=O)[C@H](CCCCN)NC(=O)[C@@H](NC(=O)[C@H](CO)NC(=O)[C@H](CCC(=O)O)NC(=O)[C@@H](NC(=O)[C@H](Cc1ccc(O)cc1)NC(=O)[C@H](CCSC)NC(=O)[C@H](Cc1ccccc1)NC(=O)[C@H](CO)NC(=O)[C@H](Cc1ccccc1)NC(=O)[C@@H](N)CCCCN)[C@@H](C)CC)[C@@H](C)CC)C(C)C)C(=O)O` [A20R (214–228)], for which the midpoint of inhibition against HLA-DR1, the IC50, lay at 192 nM.

At HLA-DR1, `CC[C@H](C)[C@H](NC(=O)[C@H](Cc1ccccc1)NC(=O)[C@H](CC(C)C)NC(=O)[C@H](CC(C)C)NC(=O)[C@H](CO)NC(=O)[C@@H](NC(=O)[C@H](C)N)C(C)C)C(=O)N[C@@H](CCC(N)=O)C(=O)NCC(=O)N[C@@H](Cc1ccc(O)cc1)C(=O)N[C@@H](CO)C(=O)N[C@H](C(=O)N[C@@H](Cc1ccc(O)cc1)C(=O)N[C@@H](CCC(=O)O)C(=O)N[C@@H](CC(N)=O)C(=O)O)[C@@H](C)CC` [A28Ls (15–29)] displayed an IC50 of 212 nM. On the same count and under the same terms, the same measure for `CC[C@H](C)[C@H](NC(=O)CNC(=O)[C@H](CO)NC(=O)[C@H](CCC(N)=O)NC(=O)[C@H](CC(N)=O)NC(=O)[C@@H](NC(=O)[C@H](Cc1ccccc1)NC(=O)[C@@H]1CCCN1C(=O)[C@@H](N)CCC(=O)O)C(C)C)C(=O)N[C@@H](CCC(=O)O)C(=O)N[C@H](C(=O)N[C@@H](CC(C)C)C(=O)N[C@@H](CC(C)C)C(=O)O)[C@@H](C)CC` [D11L (386–398)]: 106 nM; for `CC[C@H](C)[C@H](NC(=O)[C@H](CO)NC(=O)[C@H](CC(N)=O)NC(=O)[C@H](Cc1ccccc1)NC(=O)[C@@H](NC(=O)[C@@H](N)CC(C)C)C(C)C)C(=O)N[C@@H](CO)C(=O)N[C@@H](C)C(=O)N[C@@H](CCCNC(=N)N)C(=O)N[C@@H](C)C(=O)N[C@@H](CC(C)C)C(=O)N[C@@H](CCCCN)C(=O)N[C@@H](C)C(=O)N[C@@H](Cc1ccc(O)cc1)C(=O)N[C@@H](Cc1ccccc1)C(=O)O` [I1L (8–22)]: 15 nM. On to `CC[C@H](C)[C@H](NC(=O)[C@H](C)NC(=O)[C@H](CC(C)C)NC(=O)[C@H](CO)NC(=O)[C@H](CC(N)=O)NC(=O)[C@H](CC(C)C)NC(=O)[C@H](Cc1ccccc1)NC(=O)[C@H](CCCNC(=N)N)NC(=O)[C@H](CCSC)NC(=O)[C@H](CC(=O)O)NC(=O)[C@@H](N)Cc1ccccc1)C(=O)N[C@@H](Cc1c[nH]cn1)C(=O)N[C@@H](CCC(=O)O)C(=O)O` [I7L (193–205)], for which, on HLA-DR1, the IC50 is 150 nM. With `CC[C@H](C)[C@H](NC(=O)[C@@H]1CCCN1C(=O)[C@H](CO)NC(=O)CNC(=O)[C@H](CC(=O)O)NC(=O)[C@H](CC(C)C)NC(=O)[C@@H](NC(=O)[C@H](CCCCN)NC(=O)[C@H](Cc1ccccc1)NC(=O)CNC(=O)[C@H](CC(C)C)NC(=O)[C@@H](N)CO)C(C)C)C(=O)N[C@@H](CO)C(=O)N[C@@H](CC(C)C)C(=O)N[C@@H](CCCNC(=N)N)C(=O)O` [I8R (243–257)], on HLA-DR1, the IC50 was 17 nM. Regarding A28Ls (15–29) (peptide), the t1/2in in experiment [1] amounted to 8.88 days. Further, in experiment [2], the IC50 was 212 nM.

As to A48Rs (41–55) (peptide), in experiment [1], the t1/2DM stood at 115 h and the t1/2in turned out to be 5.67 days. For the same compound, the IC50 in experiment [2] came to 44 nM. As for D5R (315–329) (peptide), in experiment [1], the t1/2in turned out to be 11.5 days.

Consider D6R (156–170) (peptide), for which, in experiment [1], the t1/2DM amounted to 219 h and the t1/2in is 41.5 days. For the same compound, the IC50 in experiment [2] turned out to be 4 nM.

On to F1L(202–214) (peptide), for which, in experiment [1], the t1/2DM was 117 h and the t1/2in stood at 17.2 days.

Turning to GRYLVLKAVKVSD [F17R(19–31)], at HLA-DR1, it took 37 nM to reach half-maximal inhibition (IC50). Turning to HPDYAILAARIAVSN [I4L (71–85)], the IC50 on HLA-DR1 amounted to 62 nM.

With I1L (8–22) (peptide), the t1/2in in experiment [1] was 6.46 days. Moreover, the IC50 in experiment [2] amounted to 15 nM. As to I4L (71–85) (peptide), in experiment [1], the t1/2in amounted to 11.6 days. L1R (191–205) (peptide): the IC50 in experiment [2] was 7360 nM.

TTQSMNIMESIPANT [A48Rs (41–55)]: 44 nM corresponded to half-maximal inhibition against HLA-DR1 (IC50).
